These results are taken from paper PMC5679380.

The target of the assay is D-tagatose 3-epimerase from Rhodobacter sphaeroides (Rhodobacter sphaeroides). The assay is described as follows: SEC; Superdex200 10/300 GL, 20 mM Tris-HCl pH 8.0, 100 mM NaCl, 1 mM dithiothreitol; 50 ug of purified RsDTE; six standard protein markers (6.5-158 kDa) for calibration.

What is called stoichiometry N is a count of units in the complex or per binding partner. As to “D-tagatose 3-epimerase from Rhodobacter sphaeroides (enzyme)”, the stoichiometry N came to 4.
